Results: the supplement of paper PMC7877785
± gives the uncertainty stated by the source.

Assay: self-splicing fitness, log relative to wild type (ln ratio); higher = more splicing; Tetrahymena group I intron in knt gene, E. coli kanamycin selection, DiMSum; sequences stand for … in CUCUCU…GGAGGGAAAAGUUAUCAGGCAUGCACCUGGUAGCUAGUCUUUAAACCAAUAGAUUGCAUCGGUUUAAAAGGCAAGACCGUCAAAUUGCGGGAAAGGGGUCAACAGCCGUUCAGUACCAAGUCUCAGGGGAAACUUUGAGAUGGCCUUGCAAAGGGUAUGGUAAUAAGCUGACGGACAUGGUCCUAACCACGCAGCCAAGUCCUAAGUCAACAGAUCUUCUGUUGAUAUGGAUGCAGUUCACAGACUAAAUGUCGGUCGGGGAAGAUGUAUUCUUCUCAUAAGAUAUAGUCGGACCUCUCCUUAAUGGGAGCUAGCGGAUGAAGUGAUGCAACACUGGAGCCGCUGGGAACUAAUUUGUAUGCGAAAGUAUAUUGAUUAGUUUUGGAGUACUCGUGGUCG
Procedure, shortened: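 The eight P1ex-region nucleotides of an intron in the knt kanamycin-resistance gene on pET-22b(+) were all randomised and the library put into E. coli BL21(DE3). Six replicate transformations were grown overnight at 37°C or 30°C on LB agar with or without 25 μg/mL kanamycin, together with 100 μg/mL carbenicillin, 50 μM IPTG and 0.2% rhamnose. Colonies were pooled and amplicon-sequenced on an Illumina HiSeq 2500. Fitness from DiMSum is the error-weighted combination of wild-type-normalised replicate fold changes, kanamycin over none.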

Row | Sequence | self-splicing fitness (ln) (30 °C) | self-splicing fitness (ln) (37 °C)
1 | ACCCAGCAAUAUUACGCCGU | -1.37 ± 0.064 | -0.415 ± 0.081
2 | ACCCAGCAAUAUUACGCGAC | -2.48 ± 0.12 | -1.22 ± 0.13
3 | ACCCAGCAAUAUUACGCGGA | -0.326 ± 0.05 | 0.218 ± 0.064
4 | ACCCAGCAAUAUUACGGAAA | -0.977 ± 0.083 | -0.213 ± 0.083
5 | ACCCAGCAAUAUUACGGAUA | -0.912 ± 0.08 | -0.448 ± 0.083
6 | ACCCAGCAAUAUUACGGAUG | -1.57 ± 0.067 | -0.939 ± 0.083
7 | ACCCAGCAAUAUUACGGGGU | -3.58 ± 0.14 | -3 ± 0.14
8 | ACCCAGCAAUAUUACGUAAU | -0.676 ± 0.035 | 0.426 ± 0.061
9 | ACCCAGCAAUAUUACGUAUU | -1.93 ± 0.069 | -0.714 ± 0.077
10 | ACCCAGCAAUAUUACGUCAG | -3.14 ± 0.11 | -1.22 ± 0.092
11 | ACCCAGCAAUAUUACGUGAG | -0.151 ± 0.037 | -0.0922 ± 0.054
12 | ACCCAGCAAUAUUACGUGAU | -0.402 ± 0.034 | 0.181 ± 0.048
13 | ACCCAGCAAUAUUACGUUCC | -2.32 ± 0.11 | -1.02 ± 0.14
14 | ACCCAGCAAUAUUACGUUGG | -3.6 ± 0.1 | -2.16 ± 0.11
15 | ACCCAGCAAUAUUACGUUUG | -4.2 ± 0.13 | -2.44 ± 0.11
16 | ACCGAGCAAUAUUACGAAAA | -3.51 ± 0.3 | -2.81 ± 0.24
17 | ACCGAGCAAUAUUACGAAGG | -2.76 ± 0.17 | -2.7 ± 0.28
18 | ACCGAGCAAUAUUACGACGA | -1.16 ± 0.15 | -0.75 ± 0.15
19 | ACCGAGCAAUAUUACGAGAG | -3.89 ± 0.28 | -2.63 ± 0.18
20 | ACCGAGCAAUAUUACGAGCC | -3.21 ± 0.23 | -3.23 ± 0.32
21 | ACCGAGCAAUAUUACGAGUU | -3.25 ± 0.14 | -2.87 ± 0.15
22 | ACCGAGCAAUAUUACGAUAG | -3.12 ± 0.21 | -2.42 ± 0.24
23 | ACCGAGCAAUAUUACGAUUA | -2.31 ± 0.17 | -3.01 ± 0.25
24 | ACCGAGCAAUAUUACGCAAC | -2.01 ± 0.2 | -0.42 ± 0.2
25 | ACCGAGCAAUAUUACGCACG | -3.67 ± 0.31 | -3.29 ± 0.33

Row | Sequence | self-splicing fitness (ln) (30 °C) | self-splicing fitness (ln) (37 °C)
26 | ACCGAGCAAUAUUACGCCAG | – | -1.35 ± 0.27
27 | ACCGAGCAAUAUUACGCCGU | -3.49 ± 0.3 | -1.75 ± 0.2
28 | ACCGAGCAAUAUUACGCGAC | – | -2.66 ± 0.44
29 | ACCGAGCAAUAUUACGCGUG | -1.41 ± 0.079 | -0.71 ± 0.08
30 | ACCGAGCAAUAUUACGCUCA | -1.14 ± 0.13 | -0.577 ± 0.2
31 | ACCGAGCAAUAUUACGGCGA | -0.182 ± 0.086 | -0.768 ± 0.12
32 | ACCGAGCAAUAUUACGGUGG | -2.91 ± 0.13 | -3.14 ± 0.29
33 | ACCGAGCAAUAUUACGUAAU | -3.19 ± 0.12 | -1.54 ± 0.13
34 | ACCGAGCAAUAUUACGUACC | -3.88 ± 0.33 | -2.37 ± 0.44
35 | ACCGAGCAAUAUUACGUACG | -3.75 ± 0.28 | -2.57 ± 0.22
36 | ACCGAGCAAUAUUACGUAGG | -3.76 ± 0.2 | -2.79 ± 0.24
37 | ACCGAGCAAUAUUACGUCAC | -3.34 ± 0.27 | -2 ± 0.21
38 | ACCGAGCAAUAUUACGUCUA | -3.65 ± 0.28 | -2.86 ± 0.17
39 | ACCGAGCAAUAUUACGUGCA | -2.45 ± 0.13 | -1.79 ± 0.12
40 | ACCGAGCAAUAUUACGUGGU | -3.77 ± 0.17 | -2.05 ± 0.18
41 | ACCGAGCAAUAUUACGUUAC | -4.23 ± 0.22 | -2.66 ± 0.18
42 | ACCUAGCAAUAUUACGAAAG | -2.49 ± 0.11 | -2.2 ± 0.13
43 | ACCUAGCAAUAUUACGAAAU | -2.9 ± 0.16 | -0.321 ± 0.15
44 | ACCUAGCAAUAUUACGACAA | -0.996 ± 0.14 | -0.881 ± 0.16
45 | ACCUAGCAAUAUUACGACGC | -0.289 ± 0.11 | 0.164 ± 0.12
46 | ACCUAGCAAUAUUACGACUU | -0.837 ± 0.094 | 0.22 ± 0.1
47 | ACCUAGCAAUAUUACGAUAG | -3.99 ± 0.35 | -2.49 ± 0.41
48 | ACCUAGCAAUAUUACGAUCC | -2.35 ± 0.17 | -1.15 ± 0.2
49 | ACCUAGCAAUAUUACGCAAU | -2 ± 0.1 | -0.798 ± 0.09
50 | ACCUAGCAAUAUUACGCCAG | -1.83 ± 0.22 | –

Row | Sequence | self-splicing fitness (ln) (30 °C) | self-splicing fitness (ln) (37 °C)
51 | ACCUAGCAAUAUUACGCCGG | -0.962 ± 0.13 | -0.598 ± 0.17
52 | ACCUAGCAAUAUUACGCCGU | -0.801 ± 0.083 | -0.776 ± 0.11
53 | ACCUAGCAAUAUUACGCGAC | -2.55 ± 0.2 | -0.855 ± 0.19
54 | ACCUAGCAAUAUUACGCUCC | -1.55 ± 0.14 | -0.204 ± 0.12
55 | ACCUAGCAAUAUUACGCUCG | -1.43 ± 0.12 | -1.48 ± 0.14
56 | ACCUAGCAAUAUUACGCUGU | -1.54 ± 0.071 | -0.737 ± 0.078
57 | ACCUAGCAAUAUUACGGAUG | -2.77 ± 0.11 | -1.24 ± 0.09
58 | ACCUAGCAAUAUUACGGCCC | -0.812 ± 0.18 | -0.39 ± 0.24
59 | ACCUAGCAAUAUUACGGCUC | -0.922 ± 0.1 | -0.468 ± 0.14
60 | ACCUAGCAAUAUUACGUAUA | -1.6 ± 0.1 | -1.46 ± 0.12
61 | ACCUAGCAAUAUUACGUGGA | -2.36 ± 0.093 | -1.62 ± 0.084
62 | ACCUAGCAAUAUUACGUUGA | -1.98 ± 0.087 | -1.54 ± 0.098
63 | ACGAAGCAAUAUUACGAAUG | -1.51 ± 0.11 | -2.67 ± 0.18
64 | ACGAAGCAAUAUUACGAGCU | -1.56 ± 0.12 | -0.76 ± 0.11
65 | ACGAAGCAAUAUUACGAUCC | -1.12 ± 0.1 | -0.136 ± 0.14
66 | ACGAAGCAAUAUUACGCAUG | -1.79 ± 0.062 | -0.62 ± 0.083
67 | ACGAAGCAAUAUUACGCCAA | -2.55 ± 0.31 | -1.98 ± 0.23
68 | ACGAAGCAAUAUUACGCCUG | -0.445 ± 0.095 | 0.217 ± 0.12
69 | ACGAAGCAAUAUUACGCGCC | -0.967 ± 0.1 | 0.356 ± 0.14
70 | ACGAAGCAAUAUUACGCGGU | -3.65 ± 0.18 | -1.48 ± 0.1
71 | ACGAAGCAAUAUUACGGAGA | -2.86 ± 0.2 | -2.42 ± 0.22
72 | ACGAAGCAAUAUUACGGAUU | -1.86 ± 0.087 | -1.67 ± 0.11
73 | ACGAAGCAAUAUUACGGCGC | -0.589 ± 0.086 | -0.278 ± 0.12
74 | ACGAAGCAAUAUUACGGGCG | -1.15 ± 0.072 | -0.126 ± 0.1
75 | ACGAAGCAAUAUUACGUAGU | -3.12 ± 0.12 | -2.13 ± 0.17
